Publication PMC10858965

Legend:
Experiment in all cases: filter binding
Conditions in all cases: 1 mM MgCl2 in FB buffer; Filter binding: 3 parts FB buffer (50 mM Tris pH 8.0, 1 mM MgCl2) + 1 part SEC buffer (20 mM HEPES pH 7.5, 150 mM NaCl, 1 mM DTT, 10% glycerol), 5 min, room …
[1] = system: Lig4 mDBD2;XRCC4 (Xenopus laevis;Xenopus laevis?)
[2] = system: Lig4 mDBD1;XRCC4 (Xenopus laevis;Xenopus laevis?)
[3] = system: Lig4 delta-DBD;XRCC4 (Xenopus laevis;Xenopus laevis?)
[4] = system: Lig4 mDBD1+2;XRCC4 (Xenopus laevis;Xenopus laevis?)

~1 kb circular DNA was tested, and the binding signal (fold weaker than WT) [1] was 10, the binding signal (fold weaker than WT) [2] was 10 and the binding signal (fold weaker than WT) [3] was 30. It also gave a binding signal (fold weaker than WT) [4] of 30.
